Starred links: 1 amine or outer side, 2 acyl side, 3 side chain; linkers in the order of their positions; H or OH if unused. Positions of bridges follow the written chain, without caps; N, C: chain ends. Non-standard residues stand in square brackets, D forms with d. Groups on a side chain read outwards from the residue. *: point of attachment. Trp(1-Me) = Cn1cc(C[C@H](N)C(=O)O)c2ccccc21; C18 diacid = O=C(O)CCCCCCCCCCCCCCCCC(=O)*; C16 diacid = O=C(O)CCCCCCCCCCCCCCC(=O)*; γGlu = O=C(O)[C@H](CCC(=O)[*:2])N[*:1]; Sar = CNCC(=O)O
B1: Compound 129 (peptide)
peptide: Ac-SEFCI[Trp(1-Me)]QDWGEHRC[Sar]EGEGGGK([γGlu-Gly-γGlu-C18 diacid])-NH2
modifications: disulfide 4-14
SMILES: CC[C@H](C)[C@@H]1NC(=O)[C@@H](NC(=O)[C@H](Cc2ccccc2)NC(=O)[C@H](CCC(=O)O)NC(=O)[C@H](CO)NC(C)=O)CSSC[C@@H](C(=O)N(C)CC(=O)N[C@@H](CCC(=O)O)C(=O)NCC(=O)N[C@@H](CCC(=O)O)C(=O)NCC(=O)NCC(=O)NCC(=O)N[C@@H](CCCCNC(=O)CC[C@H](NC(=O)CNC(=O)CC[C@H](NC(=O)CCCCCCCCCCCCCCCCC(=O)O)C(=O)O)C(=O)O)C(N)=O)NC(=O)[C@H](CCCNC(=N)N)NC(=O)[C@H](Cc2c[nH]cn2)NC(=O)[C@H](CCC(=O)O)NC(=O)CNC(=O)[C@H](Cc2c[nH]c3ccccc23)NC(=O)[C@H](CC(=O)O)NC(=O)[C@H](CCC(N)=O)NC(=O)[C@H](Cc2cn(C)c3ccccc23)NC1=O
B2: Compound 113 (peptide)
peptide: Ac-ASGEYCI[Trp(1-Me)]QDWGEHRC[Sar]EGEK([γGlu-Gly-γGlu-C18 diacid])-NH2
modifications: disulfide 6-16
SMILES: CC[C@H](C)[C@@H]1NC(=O)[C@@H](NC(=O)[C@H](Cc2ccc(O)cc2)NC(=O)[C@H](CCC(=O)O)NC(=O)CNC(=O)[C@H](CO)NC(=O)[C@H](C)NC(C)=O)CSSC[C@@H](C(=O)N(C)CC(=O)N[C@@H](CCC(=O)O)C(=O)NCC(=O)N[C@@H](CCC(=O)O)C(=O)N[C@@H](CCCCNC(=O)CC[C@H](NC(=O)CNC(=O)CC[C@H](NC(=O)CCCCCCCCCCCCCCCCC(=O)O)C(=O)O)C(=O)O)C(N)=O)NC(=O)[C@H](CCCNC(=N)N)NC(=O)[C@H](Cc2c[nH]cn2)NC(=O)[C@H](CCC(=O)O)NC(=O)CNC(=O)[C@H](Cc2c[nH]c3ccccc23)NC(=O)[C@H](CC(=O)O)NC(=O)[C@H](CCC(N)=O)NC(=O)[C@H](Cc2cn(C)c3ccccc23)NC1=O
B3: Compound 114 (peptide)
peptide: Ac-SEYCI[Trp(1-Me)]QDWGEHRC[Sar]EGEK([γGlu-Gly-γGlu-C18 diacid])-NH2
modifications: disulfide 4-14
SMILES: CC[C@H](C)[C@@H]1NC(=O)[C@@H](NC(=O)[C@H](Cc2ccc(O)cc2)NC(=O)[C@H](CCC(=O)O)NC(=O)[C@H](CO)NC(C)=O)CSSC[C@@H](C(=O)N(C)CC(=O)N[C@@H](CCC(=O)O)C(=O)NCC(=O)N[C@@H](CCC(=O)O)C(=O)N[C@@H](CCCCNC(=O)CC[C@H](NC(=O)CNC(=O)CC[C@H](NC(=O)CCCCCCCCCCCCCCCCC(=O)O)C(=O)O)C(=O)O)C(N)=O)NC(=O)[C@H](CCCNC(=N)N)NC(=O)[C@H](Cc2c[nH]cn2)NC(=O)[C@H](CCC(=O)O)NC(=O)CNC(=O)[C@H](Cc2c[nH]c3ccccc23)NC(=O)[C@H](CC(=O)O)NC(=O)[C@H](CCC(N)=O)NC(=O)[C@H](Cc2cn(C)c3ccccc23)NC1=O
B4: Compound 131 (peptide)
peptide: Ac-SEFCI[Trp(1-Me)]QDWGEHRCTEGEGGGK([γGlu-Gly-γGlu-C16 diacid])-NH2
modifications: disulfide 4-14
SMILES: CC[C@H](C)[C@@H]1NC(=O)[C@@H](NC(=O)[C@H](Cc2ccccc2)NC(=O)[C@H](CCC(=O)O)NC(=O)[C@H](CO)NC(C)=O)CSSC[C@@H](C(=O)N[C@H](C(=O)N[C@@H](CCC(=O)O)C(=O)NCC(=O)N[C@@H](CCC(=O)O)C(=O)NCC(=O)NCC(=O)NCC(=O)N[C@@H](CCCCNC(=O)CC[C@H](NC(=O)CNC(=O)CC[C@H](NC(=O)CCCCCCCCCCCCCCC(=O)O)C(=O)O)C(=O)O)C(N)=O)[C@@H](C)O)NC(=O)[C@H](CCCNC(=N)N)NC(=O)[C@H](Cc2c[nH]cn2)NC(=O)[C@H](CCC(=O)O)NC(=O)CNC(=O)[C@H](Cc2c[nH]c3ccccc23)NC(=O)[C@H](CC(=O)O)NC(=O)[C@H](CCC(N)=O)NC(=O)[C@H](Cc2cn(C)c3ccccc23)NC1=O
B5: Compound 112 (peptide)
peptide: Ac-SEYCI[Trp(1-Me)]QDWGEHRC[Sar]EGAK([γGlu-Gly-γGlu-C18 diacid])-NH2
modifications: disulfide 4-14
SMILES: CC[C@H](C)[C@@H]1NC(=O)[C@@H](NC(=O)[C@H](Cc2ccc(O)cc2)NC(=O)[C@H](CCC(=O)O)NC(=O)[C@H](CO)NC(C)=O)CSSC[C@@H](C(=O)N(C)CC(=O)N[C@@H](CCC(=O)O)C(=O)NCC(=O)N[C@@H](C)C(=O)N[C@@H](CCCCNC(=O)CC[C@H](NC(=O)CNC(=O)CC[C@H](NC(=O)CCCCCCCCCCCCCCCCC(=O)O)C(=O)O)C(=O)O)C(N)=O)NC(=O)[C@H](CCCNC(=N)N)NC(=O)[C@H](Cc2c[nH]cn2)NC(=O)[C@H](CCC(=O)O)NC(=O)CNC(=O)[C@H](Cc2c[nH]c3ccccc23)NC(=O)[C@H](CC(=O)O)NC(=O)[C@H](CCC(N)=O)NC(=O)[C@H](Cc2cn(C)c3ccccc23)NC1=O
B6: Compound 7 (peptide)
peptide: Ac-ICIWQKWGEHRCT-NH2
modifications: disulfide 2-12
SMILES: CC[C@H](C)[C@H](NC(C)=O)C(=O)N[C@H]1CSSC[C@@H](C(=O)N[C@H](C(N)=O)[C@@H](C)O)NC(=O)[C@H](CCCNC(=N)N)NC(=O)[C@H](Cc2c[nH]cn2)NC(=O)[C@H](CCC(=O)O)NC(=O)CNC(=O)[C@H](Cc2c[nH]c3ccccc23)NC(=O)[C@H](CCCCN)NC(=O)[C@H](CCC(N)=O)NC(=O)[C@H](Cc2c[nH]c3ccccc23)NC(=O)[C@H]([C@@H](C)CC)NC1=O
B7: Compound 115 (peptide)
peptide: Ac-SEYCI[Trp(1-Me)]QDWGEHRC[Sar]EGKK([γGlu-Gly-γGlu-C18 diacid])-NH2
modifications: disulfide 4-14
SMILES: CC[C@H](C)[C@@H]1NC(=O)[C@@H](NC(=O)[C@H](Cc2ccc(O)cc2)NC(=O)[C@H](CCC(=O)O)NC(=O)[C@H](CO)NC(C)=O)CSSC[C@@H](C(=O)N(C)CC(=O)N[C@@H](CCC(=O)O)C(=O)NCC(=O)N[C@@H](CCCCN)C(=O)N[C@@H](CCCCNC(=O)CC[C@H](NC(=O)CNC(=O)CC[C@H](NC(=O)CCCCCCCCCCCCCCCCC(=O)O)C(=O)O)C(=O)O)C(N)=O)NC(=O)[C@H](CCCNC(=N)N)NC(=O)[C@H](Cc2c[nH]cn2)NC(=O)[C@H](CCC(=O)O)NC(=O)CNC(=O)[C@H](Cc2c[nH]c3ccccc23)NC(=O)[C@H](CC(=O)O)NC(=O)[C@H](CCC(N)=O)NC(=O)[C@H](Cc2cn(C)c3ccccc23)NC1=O

Biological target: Human C3 (Complement tech cat #A113c) (human, UniProt P01024 23-1663)
Sequence (P01024 23-1663 limits assumed): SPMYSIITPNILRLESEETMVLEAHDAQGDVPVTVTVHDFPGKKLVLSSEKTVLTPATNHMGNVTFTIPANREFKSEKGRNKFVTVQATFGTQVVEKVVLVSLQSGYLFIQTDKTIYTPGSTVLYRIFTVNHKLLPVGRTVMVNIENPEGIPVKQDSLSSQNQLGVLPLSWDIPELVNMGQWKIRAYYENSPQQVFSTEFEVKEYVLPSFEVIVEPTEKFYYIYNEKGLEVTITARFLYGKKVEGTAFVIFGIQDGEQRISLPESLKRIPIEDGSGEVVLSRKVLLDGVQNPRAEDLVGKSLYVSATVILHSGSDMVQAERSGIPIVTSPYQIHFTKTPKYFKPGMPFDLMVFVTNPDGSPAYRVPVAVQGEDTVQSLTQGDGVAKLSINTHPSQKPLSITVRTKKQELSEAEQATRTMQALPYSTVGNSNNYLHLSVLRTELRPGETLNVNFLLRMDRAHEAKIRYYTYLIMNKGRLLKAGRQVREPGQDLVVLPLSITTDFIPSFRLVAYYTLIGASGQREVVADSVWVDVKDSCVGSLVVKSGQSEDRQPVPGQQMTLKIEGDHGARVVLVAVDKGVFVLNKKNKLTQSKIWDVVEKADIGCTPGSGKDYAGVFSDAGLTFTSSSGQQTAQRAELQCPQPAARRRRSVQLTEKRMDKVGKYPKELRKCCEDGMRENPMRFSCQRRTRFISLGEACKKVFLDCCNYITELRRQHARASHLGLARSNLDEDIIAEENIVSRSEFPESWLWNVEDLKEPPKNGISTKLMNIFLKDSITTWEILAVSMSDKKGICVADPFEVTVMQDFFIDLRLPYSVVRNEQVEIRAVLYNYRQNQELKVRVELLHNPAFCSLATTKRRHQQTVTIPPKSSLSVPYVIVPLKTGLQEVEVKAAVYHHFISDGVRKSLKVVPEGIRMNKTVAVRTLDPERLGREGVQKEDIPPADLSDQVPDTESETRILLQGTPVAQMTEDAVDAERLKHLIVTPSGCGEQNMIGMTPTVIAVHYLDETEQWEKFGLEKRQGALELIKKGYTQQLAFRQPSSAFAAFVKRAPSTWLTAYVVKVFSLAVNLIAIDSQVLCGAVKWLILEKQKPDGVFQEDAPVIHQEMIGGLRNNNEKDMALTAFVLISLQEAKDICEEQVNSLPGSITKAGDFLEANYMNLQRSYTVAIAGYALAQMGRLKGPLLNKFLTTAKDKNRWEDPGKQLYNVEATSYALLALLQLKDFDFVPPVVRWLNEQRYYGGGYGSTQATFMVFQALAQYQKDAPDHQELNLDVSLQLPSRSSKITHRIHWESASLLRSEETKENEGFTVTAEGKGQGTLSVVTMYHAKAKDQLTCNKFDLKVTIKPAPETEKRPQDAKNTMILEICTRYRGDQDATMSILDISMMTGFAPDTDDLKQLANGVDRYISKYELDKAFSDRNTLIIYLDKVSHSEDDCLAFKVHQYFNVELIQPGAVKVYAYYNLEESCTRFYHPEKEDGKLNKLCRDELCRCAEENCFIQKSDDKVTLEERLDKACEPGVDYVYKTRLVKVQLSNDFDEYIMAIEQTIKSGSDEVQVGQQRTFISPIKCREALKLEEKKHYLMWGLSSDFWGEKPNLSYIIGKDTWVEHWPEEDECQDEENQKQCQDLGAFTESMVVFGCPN
Test: cell-based or functional assay

Binder	inhibition of hemolysis IC50 [nM]
B1	< 100
B2	< 500
B3	< 500
B4	< 100
B5	< 500
Ac-SEYCI[Trp(1-Me)]QDWGEHRC[Sar]EGEK([γGlu-Lys-γGlu-C18 diacid])-NH2 (disulfide 4-14) [Compound 116]	< 500
B6	< 1000
B7	< 250
